This is an account of results in PMC4945140 (Molecular Biology of the Cell, 2016).

B1: Cdc11-capped septin hetero-octamers (Cdc11-Cdc12-Cdc3-Cdc10-Cdc10-Cdc3-Cdc12-Cdc11) (complex)
chain 1: MSGIIDASSALRKRKHLKRGITFTVMIVGQSGSGRSTFINTLCGQQVVDTSTTILLPTDTSTEIDLQLREETVELEDDEGVKIQLNIIDTPGFGDSLDNSPSFEIISDYIRHQYDEILLEESRVRRNPRFKDGRVHCCLYLINPTGHGLKEIDVEFIRQLGSLVNIIPVISKSDSLTRDELKLNKKLIMEDIDRWNLPIYNFPFDEDEISDEDYETNMYLRTLLPFAIIGSNEVYEMGGDVGTIRGRKYPWGILDVEDSSISDFVILRNALLISHLHDLKNYTHEILYERYRTEALSGESVAAESIRPNLTKLNGSSSSSTTTRRNTNPFKQSNNINNDVLNPASDMHGQSTGENNETYMTREEQIRLEEERLKAFEERVQQELLLKRQELLQREKELREIEARLEKEAKIKQEE
chain 2: MSAATATAAPVPPPVGISNLPNQRYKIVNEEGGTFTVMLCGESGLGKTTFINTLFQTVLKRADGQQHRQEPIRKTVEIDITRALLEEKHFELRVNVIDTPGFGDNVNNNKAWQPLVDFIDDQHDSYMRQEQQPYRTKKFDLRVHAVLYFIRPTGHGLKPIDIETMKRLSTRANLIPVIAKADTLTAQELQQFKSRIRQVIEAQEIRIFTPPLDADSKEDAKSGSNPDSAAVEHARQLIEAMPFAIVGSEKKFDNGQGTQVVARKYPWGLVEIENDSHCDFRKLRALLLRTYLLDLISTTQEMHYETYRRLRLEGHENTGEGNEDFTLPAIAPARKLSHNPRYKEEENALKKYFTDQVKAEEQRFRQWEQNIVNERIRLNGDLEEIQGKVKKLEEQVKSLQVKKSHLK
chain 3: MSLKEEQVSIKQDPEQEERQHDQFNDVQIKQESQDHDGVDSQYTNGTQNDDSERFEAAESDVKVEPGLGMGITSSQSEKGQVLPDQPEIKFIRRQINGYVGFANLPKQWHRRSIKNGFSFNLLCVGPDGIGKTTLMKTLFNNDDIEANLVKDYEEELANDQEEEEGQGEGHENQSQEQRHKVKIKSYESVIEENGVKLNLNVIDTEGFGDFLNNDQKSWDPIIKEIDSRFDQYLDAENKINRHSINDKRIHACLYFIEPTGHYLKPLDLKFMQSVYEKCNLIPVIAKSDILTDEEILSFKKTIMNQLIQSNIELFKPPIYSNDDAENSHLSERLFSSLPYAVIGSNDIVENYSGNQVRGRSYPWGVIEVDNDNHSDFNLLKNLLIKQFMEELKERTSKILYENYRSSKLAKLGIKQDNSVFKEFDPISKQQEEKTLHEAKLAKLEIEMKTVFQQKVSEKEKKLQKSETELFARHKEMKEKLTKQLKALEDKKKQLELSINSASPNVNHSPVPTKKKGFLR
chain 4: MDPLSSVQPASYVGFDTITNQIEHRLLKKGFQFNIMVVGQSGLGKSTLINTLFASHLIDSATGDDISALPVTKTTEMKISTHTLVEDRVRLNINVIDTPGFGDFIDNSKAWEPIVKYIKEQHSQYLRKELTAQRERFITDTRVHAILYFLQPNGKELSRLDVEALKRLTEIANVIPVIGKSDTLTLDERTEFRELIQNEFEKYNFKIYPYDSEELTDEELELNRSVRSIIPFAVVGSENEIEINGETFRGRKTRWSAINVEDINQCDFVYLREFLIRTHLQDLIETTSYIHYEGFRARQLIALKENANSRSSAHMSSNAIQR
B2: His6-MBP-Hsl1(611–950) fusion protein (domain or fragment)
chain: RETVHDNEMPLPQLPKSPSRYSLSRRAIHASPSTKSIHKSLSRKNIAATVAARRTLQNSASKRSLYSLQSISKRSLNLNDLLVFDDPLPSKKPASENVNKSEPHSLESDSDFEILCDQILFGNALDRILEEEEDNEKERDTQRQRQNDTKSSADTFTISGVSTNKENEGPEYPTKIEKNQFNMSYKPSENMSGLSSFPIFEKENTLSSSYLEEQKPKRAALSDITNSFNKMNKQEGMRIEKKIQREQLQKKNDRPSPLKPIQHQELRVNSLPNDQGKPSLSLDPRRNISQPVNSKVESLLQGLKFKKEPASHWTHERGSLFMSEHVEDEKPVKASDVSIE

Series [1] concerns the molecule itself. Put plainly: co-sedimentation.
Series [2] deals with B1. The series is described as follows: co-sedimentation.

On to B1, for which, in series [1], the binding result is “binds”.

In the case of B2, in series [2], the binding result is recorded as “binds”.
